The source of these data is paper PMC9016352, “Disease‐linked TDP‐43 hyperphosphorylation suppresses TDP‐43 condensation and aggregation”.

For series [1], the target named is TDP‐43 (UniProt Q13148). Briefly: condensate sedimentation assay, TDP-43 Western blot. The note with it: reference: unmodified TDP-43 (no CK1δ, no ATP); sites S403,S404,S409,S410.
Series [2] concerns the target TDP-43-MBP-His6 Wt (human (hTDP-43)?, UniProt Q13148 1-414). Briefly: EMSA; 20 mM NaPO4 pH 8, 150 mM NaCl, 1 mM DTT, 5 mM MgCl2, 0.5 mg/ml BSA, 0.1 mg/ml yeast tRNA, 5% glycerol, 1 U/ul RNase inhibitor, 20 min RT; 16 nM Cy5-RNA, 0-1.6 uM protein; 6% native PAGE 0.5x TBE. The note with it: protein: recombinant; tags: C-terminal TEV site-MBP-His6; label: 5' Cy5.

For the molecule “TDP‐43 (from UniProt Q13148) TDP-43 + CK1δ + ATP”, the “other: S/(S+C) ratio (higher = less condensate)” value in series [1] is recorded as “weaker; reference ~0.25”.

B1: (UG)12 RNA (ssRNA)
RNA: UGUGUGUGUGUGUGUGUGUGUGUG
Turning to B1, in series [2], the binding result was “binds”.
